B1: Pro-(X)-BMP-9 [human] / itself (parent)
chain: KPLQSWGRGSAGGNAHSPLGVPGGGLPEHTFNLKMFLENVKVDFLRSLNLSGVPSQDKTRVEPPQYMIDLYNRYTSDKSTTPASNIVRSFSMEDAISITATEDFPFQKHILLFNISIPRHEQITRAELRLYVSCQNHVDPSHDLKGSVVIYDVLDGTDAWDSATETKTFLVSQDIQDEGWETLEVSSAVKRWVRSDSTKSKNKLEVTVESHRKGCDTLDISVPPGSRNLPFFVVFSNDHSSGTKETRLELREMISHEQESVLKKLSKDGSTEAGESSHEEDTDGHVAAGSTLAIEGRSSGAGSHCQKTSLRVNFEDIGWDSWIIAPKEYEAYECKGGCFFPLADDVTPTKHAIVQTLVHLKFPTKVGKACCVPTKLSPISVLYKDDMGVPTLKYHYEGMSVAECGCR

Consider three variants from paper doi:10.1101/2024.10.14.618187, “Molecular basis of interchain disulfide-bond formation in BMP-9 and BMP-10” (bioRxiv, 2024).

Variants of B1 are the subject of the assay. The assay is described as follows: SDS-PAGE densitometry after IMAC purification. Particulars: with itself.
chain 1 K335R G367S: the screen value turned out to be 3.24.
As for chain 1 G367S, the screen value amounted to 1.29.
The result for chain 1 K335R reads 0.7.
